B1: YFP- and HA-epitope tagged dopamine transporter (YFP-HA-DAT), wild type [human] / itself (parent)
chain: MSKSKCSVGLMSSVVAPAKEPNAVGPKEVELILVKEQNGVQLTSSTLTNPRQSPVEAQDRETWGKKIDFLLSVIGFAVDLANVWRFPYLCYKNGGGAFLVPYLLFMVIAGMPLFYMELALGQFNREGAAGVWKICPILKGVGFTVILISLYVGFFYNVIIAWALHYLFSSFTTELPWIHCNNSWNSPNCSDAHPGDSSGDSSGLNDTFGTTPAAEYFERGVLHLHQSHGIDDLGPPRWQLTACLVLVIVLLYFSLWKGVKTSGKVVWITATMPYVVLTALLLRGVTLPGAIDGIRAYLSVDFYRLCEASVWIDAATQVCFSLGVGFGVLIAFSSYNKFTNNCYRDAIVTTSINSLTSFSSGFVVFSFLGYMAQKHSVPIGDVAKDGPGLIFIIYPEAIATLPLSSAWAVVFFIMLLTLGIDSAMGGMESVITGLIDEFQLLHRHRELFTLFIVLATFLLSLFCVTNGGIYVFTLLDHFAAGTSILFGVLIEAIGVAWFYGVGQFSDDIQQMTGQRPSLYWRLCWKLVSPCFLLFVVVVSIVTFRPPHYGAYIFPDWANALGWVIATSSMAMVPIYAAYKFCSLPGSFREKLAYAIAPEKDRELVDRGEVRQFTLRHWLKV

Variants of: B1
Experiment: SDS-PAGE and immunoblotting with the GFP antibody, quantification of trimer band
Conditions: AIM-100 20 μM, 2 h at 37 °C, PAE cells, read off a plot
chain 1 I248F V249T L458F L459G showed a screen value (fraction of total) of 0.3.

Same assay, conditions: AL3 20 μM, 2 h at 37 °C, PAE cells, read off a plot
In the case of chain 1 I248F V249T L458F L459G, the screen value (fraction of total) is reported as 0.15.

Same assay, conditions: AL4 20 μM, 2 h at 37 °C, PAE cells, read off a plot
chain 1 I248F V249T L458F L459G showed a screen value (fraction of total) of 0.17.

Same assay, conditions: AL8 20 μM, 2 h at 37 °C, PAE cells, read off a plot
Work on chain 1 I248F V249T L458F L459G yielded a screen value (fraction of total) of 0.22.

Same assay, conditions: vehicle, 2 h at 37 °C, PAE cells, read off a plot
chain 1 I248F V249T L458F L459G showed a screen value (fraction of total) of 0.17.
